We go through 30 molecules from publication PMC11417369, “DNA sequence and chromatin differentiate sequence-specific transcription factor binding in the human malaria parasite Plasmodium falciparum”.

The chains are these.
B1: CACACA_negctrl_site1550 (dsDNA)
DNA 1: TAAAATTAATAAAATATTTTCACTTAATATATATAA
DNA 2: TTATATATATTAAGTGAAAATATTTTATTAATTTTA
B2: CACACA_negctrl_site17 (dsDNA)
DNA 1: AAAAGAAAAAAAAAAAAAAAAAAAATTAAAATATAA
DNA 2: TTATATTTTAATTTTTTTTTTTTTTTTTTTTCTTTT
B3: CACACA_negctrl_site1522 (dsDNA)
DNA 1: TTTTTATGTTATCAAATAAATATAAATATAATTCAT
DNA 2: ATGAATTATATTTATATTTATTTGATAACATAAAAA
B4: CACACA_negctrl_site1348 (dsDNA)
DNA 1: TTATTATCATCAAATCAAAAAATTCTTTTACCTGTT
DNA 2: AACAGGTAAAAGAATTTTTTGATTTGATGATAATAA
B5: CACACA_negctrl_site514 (dsDNA)
DNA 1: AGATTTCAAGGTAATAGATCAATTTTAATTTGTAAA
DNA 2: TTTACAAATTAAAATTGATCTATTACCTTGAAATCT
B6: CACACA_negctrl_site10 (dsDNA)
DNA 1: AAATCACAAAAAAAAAAAAAAATATATATATATATA
DNA 2: TATATATATATATATTTTTTTTTTTTTTTGTGATTT
B7: CACACA_negctrl_site84 (dsDNA)
DNA 1: CACACTTTTTAAATTAACGCATTTCAAAAAAAATAT
DNA 2: ATATTTTTTTTGAAATGCGTTAATTTAAAAAGTGTG
B8: CACACA_negctrl_site892 (dsDNA)
DNA 1: TTAATATATAATAAATTTTTTTTTTTTTTTTTTTTT
DNA 2: AAAAAAAAAAAAAAAAAAAAATTTATTATATATTAA
B9: CACACA_site8825 (dsDNA)
DNA 1: AAAAAAGATAATTATGCACACACACCCACCCACCCA
DNA 2: TGGGTGGGTGGGTGTGTGTGCATAATTATCTTTTTT
B10: CACACA_negctrl_site232 (dsDNA)
DNA 1: AAACAAAATTTATTTCAAAGTTAATAATTTTTATGT
DNA 2: ACATAAAAATTATTAACTTTGAAATAAATTTTGTTT
B11: CACACA_negctrl_site930 (dsDNA)
DNA 1: ACATATATATATATATATATATATATATATTCTTAA
DNA 2: TTAAGAATATATATATATATATATATATATATATGT
B12: CACACA_negctrl_site285 (dsDNA)
DNA 1: TATTATGTCTAAAATAACATATTAATATATTATTTC
DNA 2: GAAATAATATATTAATATGTTATTTTAGACATAATA
B13: CACACA_negctrl_site1331 (dsDNA)
DNA 1: AATATAATCTTTCAAAAGAAAAAGACTTCATGAAAA
DNA 2: TTTTCATGAAGTCTTTTTCTTTTGAAAGATTATATT
B14: CACACA_site2373 (dsDNA)
DNA 1: ATGTTCTTTAAAACCACACACCCCCCAACCCCCCTC
DNA 2: GAGGGGGGTTGGGGGGTGTGTGGTTTTAAAGAACAT
B15: CACACA_negctrl_site1833 (dsDNA)
DNA 1: TAATATTTTTATTATTAGAATTGTATATGTTTAATA
DNA 2: TATTAAACATATACAATTCTAATAATAAAAATATTA
B16: CACACA_negctrl_site1272 (dsDNA)
DNA 1: ATTTTTTTTTTTTTTTTTTTTTTTTAGATTAAGAAA
DNA 2: TTTCTTAATCTAAAAAAAAAAAAAAAAAAAAAAAAT
B17: CACACA_negctrl_site165 (dsDNA)
DNA 1: TCTCAAGTTGTTAAAAAATAAAAACAATAAATCTAA
DNA 2: TTAGATTTATTGTTTTTATTTTTTAACAACTTGAGA
B18: CACACA_negctrl_site1763 (dsDNA)
DNA 1: AAAAAAAAATATACATATATATATATATATATATAT
DNA 2: ATATATATATATATATATATATGTATATTTTTTTTT
B19: CACACA_negctrl_site521 (dsDNA)
DNA 1: TAGTTCTTTTAATTTAGTATTATACAATATTGGAAA
DNA 2: TTTCCAATATTGTATAATACTAAATTAAAAGAACTA
B20: CACACA_negctrl_site309 (dsDNA)
DNA 1: TTATTCCTTTTCCTTTTTTTTTTTTAACCAAAAAAA
DNA 2: TTTTTTTGGTTAAAAAAAAAAAAGGAAAAGGAATAA
B21: CACACA_negctrl_site641 (dsDNA)
DNA 1: TCTTGACGAAGTAGAAGGATATATATATAAAAAAAA
DNA 2: TTTTTTTTATATATATATCCTTCTACTTCGTCAAGA
B22: CACACA_negctrl_site510 (dsDNA)
DNA 1: TAATATCTAAAAAATATATTTTTTATTTTTTATTAA
DNA 2: TTAATAAAAAATAAAAAATATATTTTTTAGATATTA
B23: CACACA_site8429 (dsDNA)
DNA 1: TAAGAAATAAATAGTACACACATAGACACCCACCCA
DNA 2: TGGGTGGGTGTCTATGTGTGTACTATTTATTTCTTA
B24: CACACA_negctrl_site60 (dsDNA)
DNA 1: TTATAGGTTCTATACATATATTTATATATGTACAGA
DNA 2: TCTGTACATATATAAATATATGTATAGAACCTATAA
B25: CACACA_negctrl_site1320 (dsDNA)
DNA 1: TTTTAAAACAATGAGATTCCTTTCTTTTTTTCTTTT
DNA 2: AAAAGAAAAAAAGAAAGGAATCTCATTGTTTTAAAA
B26: CACACA_negctrl_site219 (dsDNA)
DNA 1: GCAAAACATTTTTAAAATAAAAATAATAAAATATAT
DNA 2: ATATATTTTATTATTTTTATTTTAAAAATGTTTTGC
B27: CACACA_negctrl_site1280 (dsDNA)
DNA 1: TTATTAAGTAAATCACATTTAATTTTTTTTTTTTTT
DNA 2: AAAAAAAAAAAAAATTAAATGTGATTTACTTAATAA
B28: CACACA_negctrl_site609 (dsDNA)
DNA 1: GTATATATATATATATATATATATATATATATATAT
DNA 2: ATATATATATATATATATATATATATATATATATAC
B29: CACACA_negctrl_site681 (dsDNA)
DNA 1: CACAAAGGTCTGAAATTTTAGGGGTGCCTGGGACTA
DNA 2: TAGTCCCAGGCACCCCTAAAATTTCAGACCTTTGTG
B30: CACACA_negctrl_site553 (dsDNA)
DNA 1: TTTTTATATTATTTAATGAGAAATAATTATAAACAA
DNA 2: TTGTTTATAATTATTTCTCATTAAATAATATAAAAA

This data set concerns the target T1, PF3D7_0420300 D1 (Plasmodium falciparum, UniProt Q8I1N6 1956-2015).
T1 sequence: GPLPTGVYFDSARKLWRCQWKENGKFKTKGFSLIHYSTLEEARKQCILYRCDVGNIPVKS
Description: gcPBM; about 25 ug protein; PBS, 1% milk, 0.2 mg/ml BSA, salmon testes DNA, 0.03% Triton X-100. The conditions noted are these: tags: N-terminal GST (pGEX-4T-1), kept; label: surface-attached array probe.
For B1, the binding signal is 8.87 ln median PBM intensity, better of two orientations.

For B2, the binding signal is 8.84 ln median PBM intensity, better of two orientations.

On to B3, for which the binding signal is 8.91 ln median PBM intensity, better of two orientations.

For the molecule B4, the binding signal was 8.94 ln median PBM intensity, better of two orientations.

Consider B5, for which the binding signal was 8.83 ln median PBM intensity, better of two orientations.

B6: the binding signal is 8.95 ln median PBM intensity, better of two orientations.

B7: the binding signal was 8.95 ln median PBM intensity, better of two orientations.

With B8, the binding signal was 8.85 ln median PBM intensity, better of two orientations.

B9: the binding signal is 10.6 ln median PBM intensity, better of two orientations.

With B10, the binding signal is 8.93 ln median PBM intensity, better of two orientations.

Turning to B11, the binding signal was 8.93 ln median PBM intensity, better of two orientations.

For the molecule B12, the binding signal is 8.94 ln median PBM intensity, better of two orientations.

With B13, the binding signal is 8.86 ln median PBM intensity, better of two orientations.

With B14, the binding signal was 10.6 ln median PBM intensity, better of two orientations.

Turning to B15, the binding signal is 8.92 ln median PBM intensity, better of two orientations.

As to B16, the binding signal is 8.84 ln median PBM intensity, better of two orientations.

Consider B17, for which the binding signal was 8.93 ln median PBM intensity, better of two orientations.

Turning to B18, the binding signal was 8.93 ln median PBM intensity, better of two orientations.

On to B19, for which the binding signal is 8.91 ln median PBM intensity, better of two orientations.

For B20, the binding signal is 8.9 ln median PBM intensity, better of two orientations.

On to B21, for which the binding signal was 8.88 ln median PBM intensity, better of two orientations.

Consider B22, for which the binding signal is 8.86 ln median PBM intensity, better of two orientations.

Take B23: the binding signal was 10.6 ln median PBM intensity, better of two orientations.

On to B24, for which the binding signal is 8.89 ln median PBM intensity, better of two orientations.

Regarding B25, the binding signal is 8.89 ln median PBM intensity, better of two orientations.

Take B26: the binding signal is 8.88 ln median PBM intensity, better of two orientations.

B27: the binding signal was 8.82 ln median PBM intensity, better of two orientations.

Turning to B28, the binding signal was 8.9 ln median PBM intensity, better of two orientations.

B29: the binding signal was 8.87 ln median PBM intensity, better of two orientations.

As for B30, the binding signal was 8.82 ln median PBM intensity, better of two orientations.
